Experimental data from EP4534564A1 (ImmuneOnco Biopharmaceuticals (Shanghai) Inc., dated 2025).

Assays:
[1] = target: PD-L1 on CHO-PD-L1 cells (Cat#YMAK-C006, ImmuneOnco) (UniProt Q9NZQ7 19-290, limits assumed); assay: cell-based or functional assay
[2] = target: T1, monkey PD-L1 (Cat#90251-C08H, sino Biological) (monkey, UniProt G7PSE7 19-238); assay: BLI (Gator), human Fc probe, Kinetics Assay mode, 25 C
T1 construct: also called PD-L1-his

[3] = target: recombinant human VEGF-165 protein (Cat#11066-HNAH, Sino Biologicals) (human, UniProt P15692-4 27-191); assay: ELISA, VEGF-165 coated 50 ng/well
Sequence of recombinant human VEGF-165 protein (Cat#11066-HNAH, Sino Biologicals) (P15692 other isoform, or with tags, fused parts or gaps limits assumed): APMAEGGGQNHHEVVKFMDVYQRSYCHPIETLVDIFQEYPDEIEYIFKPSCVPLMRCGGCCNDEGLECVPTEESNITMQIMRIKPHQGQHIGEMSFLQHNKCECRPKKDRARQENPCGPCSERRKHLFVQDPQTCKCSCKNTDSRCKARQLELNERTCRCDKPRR

T1 sequence (G7PSE7 entry or part of it C08H C08H limits assumed, form in doubt): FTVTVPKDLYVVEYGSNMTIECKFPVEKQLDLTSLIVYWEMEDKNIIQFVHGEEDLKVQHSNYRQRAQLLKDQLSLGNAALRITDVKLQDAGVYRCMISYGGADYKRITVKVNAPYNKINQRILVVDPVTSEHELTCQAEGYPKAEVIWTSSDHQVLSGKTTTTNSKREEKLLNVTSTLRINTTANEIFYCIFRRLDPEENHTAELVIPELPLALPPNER
Sequence of PD-L1 on CHO-PD-L1 cells (Cat#YMAK-C006, ImmuneOnco) (Q9NZQ7 19-290 limits assumed): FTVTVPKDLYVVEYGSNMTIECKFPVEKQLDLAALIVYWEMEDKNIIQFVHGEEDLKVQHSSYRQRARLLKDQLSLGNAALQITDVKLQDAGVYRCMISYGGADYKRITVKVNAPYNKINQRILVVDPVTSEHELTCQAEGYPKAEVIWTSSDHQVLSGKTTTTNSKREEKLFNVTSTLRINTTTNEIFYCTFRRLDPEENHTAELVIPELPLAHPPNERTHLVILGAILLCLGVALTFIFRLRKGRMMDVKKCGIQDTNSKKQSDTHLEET

Binder	ADCC (%lysis) against Raji-PD-L1 cells by NK92MI cells expressing FcgRIIIa (158V) [1] [fold lower than IMM2515H]	Kd [2] [nM]	koff [2] [s⁻¹]	kon [2] [M⁻¹ s⁻¹]	binding result [3]
IMM2518 (bispecific antibody, human IgG1, kappa, Anti-PD-L1 IgG IMM2515H with VEGFR1D2 linked by a (G4S)3 linker to the N-terminus of each heavy chain; also called recombinant fusion protein) heavy: SDTGRPFVEMYSEIPEIIHMTEGRELVIPCRVTSPNITVTLKKFPLDTLIPDGKRIIWDSRKGFIISAATYKEIGLLTCEATVNGHLYKTNYLTHRQTNTGGGGSGGGGSGGGGSQVQLVQSGAEVKKPGASVKVSCKASGYTFTSNWMHWVRQAPGQGLEWMGMIHPNSGSSNYNEKFKSRVTMTRDTSTSTVYMELSSLRSEDTAVYYCARSYYGSSPYYFDYWGQGTLVTVSSASTKGPSVFPLAPSSKSTSGGTAALGCLVKDYFPEPVTVSWNSGALTSGVHTFPAVLQSSGLYSLSSVVTVPSSSLGTQTYICNVNHKPSNTKVDKRVEPKSCDKTHTCPPCPAPELLGGPSVFLFPPKPKDTLMISRTPEVTCVVVDVSHEDPEVKFNWYVDGVEVHNAKTKPREEQYNATYRVVSVLTVLHQDWLNGKEYKCKVSNKALPAPIAATISKAKGQPREPQVYTLPPSREEMTKNQVSLTCLVKGFYPSDIAVEWESNGQPENNYKTTPPVLDSDGSFFLYSKLTVDKSRWQQGNVFSCSVMHEALHNHYTQKSLSLSPGK light: not shown	6	0.441	0.000218	494000	
IMM2519 (bispecific antibody, human IgG1, kappa, Anti-PD-L1 IgG IMM2515H with VEGFR1D2 linked by a (G4S)3 linker to the N-terminus of each light chain; also called recombinant fusion protein) heavy: QVQLVQSGAEVKKPGASVKVSCKASGYTFTSNWMHWVRQAPGQGLEWMGMIHPNSGSSNYNEKFKSRVTMTRDTSTSTVYMELSSLRSEDTAVYYCARSYYGSSPYYFDYWGQGTLVTVSSASTKGPSVFPLAPSSKSTSGGTAALGCLVKDYFPEPVTVSWNSGALTSGVHTFPAVLQSSGLYSLSSVVTVPSSSLGTQTYICNVNHKPSNTKVDKRVEPKSCDKTHTCPPCPAPELLGGPSVFLFPPKPKDTLMISRTPEVTCVVVDVSHEDPEVKFNWYVDGVEVHNAKTKPREEQYNATYRVVSVLTVLHQDWLNGKEYKCKVSNKALPAPIAATISKAKGQPREPQVYTLPPSREEMTKNQVSLTCLVKGFYPSDIAVEWESNGQPENNYKTTPPVLDSDGSFFLYSKLTVDKSRWQQGNVFSCSVMHEALHNHYTQKSLSLSPGK light: not shown					binds
